Experiments:
[1] = tested on: mouse oocytes; test: AURA inhibition in mouse oocytes, NUMA enrichment at spindle poles; format: cell-based; details: constitutive treatment, 500 nM; data not shown
Excerpt: aMTOCs enrich several regulatory kinases at the spindle poles in mouse oocytes (26). The inventors considered that AURA, which is an essential kinase for aMTOC functions (43, 44) and can phosphorylate NUMA (45), negatively regulates NUMA enrichment at microtubule minus-ends in mouse oocytes. […] To confirm that NUMA enrichment is regulated by AURA-dependent phosphorylation, the inventors depleted endogenous NUMA by follicle RNAi (39) and re-expressed NUMA with mutations at the AURA phosphorylation site S1969. […] Together, the inventors infer that AURA phosphorylation negatively regulates NUMA enrichment at microtubule minus-ends in mouse oocytes. All drugs were prepared in DMSO (Sigma-Aldrich) as 1000× stocks. […] Specific parameters used were: 0.1 (for microtubule packing index) or 1.0 (for SD of fluorescence intensity within spindle isosurface) μm for smoothing size, no background subtraction, 500-750 and 1000-1750 μm^3 for minimum and maximum expected total volume of surface object, respectively. SD of fluorescence intensity, volume and volume of the object-oriented minimum bounding box for the spindle isosurface were exported into Excel. Microtubule packing index was calculated by dividing the volume of spindle isosurface by the volume of the object-oriented minimum bounding box. […] Mean fluorescence intensity and volume of isosurfaces were exported into Excel. […]

[2] = tested on: KIFC1/HSET-depleted aMTOC-free mouse oocytes; test: Rescue of spindle polarity in KIFC1/HSET-depleted aMTOC-free mouse oocytes (human oocyte mimics); format: cell-based
Excerpt: This domain, together with the conserved, microtubule-binding motor domain, allows KIFC1/HSET to organize microtubules via crosslinking and/or sliding (86). To investigate the requirement of different domains in KIFC1/HSET, the inventors expressed a series of truncation mutants in aMTOC-free mouse oocytes (FIG. 7K). […] To examine whether the motor activity is dispensable for the function of KIFC1/HSET in aMTOC-free mouse oocytes, the inventors depleted endogenous KIFC1/HSET by follicle RNAi and restored expression with wild-type HSET or with HSET(N593K), which crosslinks microtubules but cannot slide (87). […] Together, the inventors infer that the appropriate level of KIFC1/HSET's crosslinking and sliding activities are required for proper bipolar spindle assembly in the absence of aMTOCs.
Mouse follicles were microinjected with 3.5 pl of siRNAs at a needle concentration of 2 μM as previously described (11). For rescue experiments, in vitro grown oocytes were microinjected with 3.5 pl of mRNAs. mClover3-HSET mRNA was microinjected at a needle concentration of 275 ng/μl, mClover3-HSET(N593K) mRNA at 275 ng/μl, mClover3-NUMA(S1955D) mRNA at 400 ng/μl, mClover3-NUMA(S1955A) mRNA at 400 ng/μl, mClover3-NUMA(SpM-4A) mRNA at 400 ng/μl, mClover3-NUMA(ΔMTBD1) mRNA at 400 ng/μl and mClover3-NUMA(ΔMTBD2) mRNA at 400 ng/μl. Oocytes were allowed to express the mRNAs for 3-4 h before release.
To obtain mouse MI spindles, oocytes were incubated at 37° C. for around 7 h after released into dbcAMP-free medium. To obtain porcine and bovine MI spindles, oocytes were incubated at 39° C./5% CO2 for around 11 and 12 h, respectively, after released into RO-3306-free medium. To obtain human MI spindles, oocytes were incubated at 37° C. for around 14 and 15 h after NEBD. None of the oocytes used for immunofluorescence analyses was subjected to live imaging before fixation.
Time-lapse movies of live mouse, bovine and porcine oocytes, and fixed human and mouse spindles were analyzed in 3D using Imaris (Bitplane). To determine the stages of meiosis and to score for spindle instability, the timing of meiotic progression was quantified relative to the timing of NEBD. NEBD was defined as the time point when the sharp boundary between the nucleus and cytoplasm disappeared in the differential interference contrast image (for mouse oocytes) or when the nucleus started collapsing in the H2B channel (for bovine and porcine oocytes). Spindle poles were defined as regions of MAP4 or MAP4-MTBD or α-tubulin intensity that prominently protruded from the main microtubule mass. In FIG. 1D, oocytes with bipolar spindle, in which ends of all microtubules converged at the poles, were scored as having focused poles. […] For mouse oocytes, unfocused poles were further classified into mildly unfocused poles (with partially separated microtubule ends) and severely unfocused poles (with fully separated microtubule ends). In FIG. 4D, bovine and porcine oocytes, in which the spindle maintained a barrel-shaped bipolar morphology and a detectable spindle axis, were scored as having stable spindle poles. Oocytes, in which the spindle lost their initial bipolarity and underwent dynamic remodeling of the pole(s) were scored as having unstable spindle poles. […] Oocytes, in which the spindle had more than two poles, were scored as having multipolar spindle. In FIG. 1H, mouse oocytes, in which the spindle had two well-defined poles, were scored as having bipolar spindle. Mouse oocytes, in which the spindle had two poorly defined poles, were scored as having apolar/round spindle. Mouse oocytes, in which the spindle had more than two poles, were scored as having multipolar spindle. […] Mouse oocytes, in which the spindle lost its barrel shape but contains several weakly associated microtubule bundles, were scored as having disorganized spindle.

Molecule | NUMA enrichment at the spindle poles [1] | HSET to α-tubulin intensity ratio, more HSET loaded onto spindles with poorly focused poles ([2]; bipolar MI spindles rescued with wild-type HSET, FIG. 3I) [fold] | spindle polarity (manual scoring) ([2]; endogenous KIFC1/HSET depleted by follicle RNAi, expression restored from mRNA, MI oocytes, FIGS. 3, G and H) | oocytes with a bipolar spindle but poorly focused poles that lacked NUMA ([2]; oocytes rescued with wild-type HSET, FIG. 3G)
COc1cc(Nc2ncc3c(n2)-c2ccc(Cl)cc2C(c2c(F)cccc2OC)=NC3)ccc1C(=O)O [MLN8237] | increased NUMA enrichment at the spindle poles |  |  | 
wild-type HSET: Wild-type HSET re-expressed from microinjected mClover3-HSET mRNA in KIFC1/HSET-depleted aMTOC-free mouse oocytes (protein, left off: large carriers, Wild-type HSET re-expressed from microinjected mClover3-HSET mRNA in KIFC1/HSET-depleted aMTOC-free mouse oocytes) MDPQRSPLLEVKGNIELKRPLIKAPSQLPLSGSRLKRRPDQMEDGLEPEKKRTRGLGATTKITTSHPRVPSLTTVPQTQGQTTAQKVSKKTGPRCSTAIATGLKNQKPVPAVPVQKSGTSGVPPMAGGKKPSKRPAWDLKGQLCDLNAELKRCRERTQTLDQENQQLQDQLRDAQQQVKALGTERTTLEGHLAKVQAQAEQGQQELKNLRACVLELEERLSTQEGLVQELQKKQVELQEERRGLMSQLEEKERRLQTSEAALSSSQAEVASLRQETVAQAALLTEREERLHGLEMERRRLHNQLQELKGNIRVFCRVRPVLPGEPTPPPGLLLFPSGPGGPSDPPTRLSLSRSDERRGTLSGAPAPPTRHDFSFDRVFPPGSGQDEVFEEIAMLVQSALDGYPVCIFAYGQTGSGKTFTMEGGPGGDPQLEGLIPRALRHLFSVAQELSGQGWTYSFVASYVEIYNETVRDLLATGTRKGQGGECEIRRAGPGSEELTVTNARYVPVSCEKEVDALLHLARQNRAVARTAQNERSSRSHSVFQLQISGEHSSRGLQCGAPLSLVDLAGSERLDPGLALGPGERERLRETQAINSSLSTLGLVIMALSNKESHVPYRNSKLTYLLQNSLGGSAKMLMFVNISPLEENVSESLNSLRFASKVNQCVIGTAQANRK |  | ~2 | assembled a bipolar spindle | around 25%

Source: patent US20250146022A1, “STABILISING THE HUMAN SPINDLE BY KIFC1/HSET” (MAX-PLANCK-GESELLSCHAFT ZUR FOERDERUNG DER WISSENSCHAFTEN …, priority 2021, published 2025)
